According to PMC6107663, “Crystal structure of human Mediator subunit MED23” (Nature Communications, 2018):

Tests used:
[1] = target: T1, human MED23 isoform 1, C-terminal 6xHis-tagged (MED23-6His) (human, UniProt Q9ULK4-1); assay: crystal structure; purified MED23 mixed with Nb106 in a 1:1.2 ratio, 1 h at 4 °C; hanging drop vapor diffusion at 20 °C, 10% PEG6000, 100 mM HEPES pH 7.0; one complex in the asymmetric unit; details: both partners purified
T1 construct: Mediator subunit MED23, human, isoform 1 (NM_004830.3); A rhinovirus 3C protease site stands between MED23 and the 6xHis tag; no cleavage is described; The DNA encoding isoform 1 was amplified by PCR; the words 'full length' are not used, but the model is called complete except for the last 30 residues; also called recombinant human MED23; source: SF21 cells, baculovirus (Bac-to-Bac), purified …

[2] = target: T2, MED23, endogenous, incorporated within the Mediator complex (human (endogenous in HEK-293), UniProt Q9ULK4); assay: co-IP; HEK-293 lysate (50 mM Tris/HCl pH 8, 250 mM NaCl, 0.1% Igepal CA-630) incubated with 2 µg of Nb106 overnight at 4 °C; fished with CaptureSelect C-tag Affinity Matrix; western blot; details: one partner purified
T2 construct: Mediator subunit MED23, human, endogenous; source: endogenous, HEK-293 lysate
T2 sequence (Q9ULK4 whole entry, one chain of several): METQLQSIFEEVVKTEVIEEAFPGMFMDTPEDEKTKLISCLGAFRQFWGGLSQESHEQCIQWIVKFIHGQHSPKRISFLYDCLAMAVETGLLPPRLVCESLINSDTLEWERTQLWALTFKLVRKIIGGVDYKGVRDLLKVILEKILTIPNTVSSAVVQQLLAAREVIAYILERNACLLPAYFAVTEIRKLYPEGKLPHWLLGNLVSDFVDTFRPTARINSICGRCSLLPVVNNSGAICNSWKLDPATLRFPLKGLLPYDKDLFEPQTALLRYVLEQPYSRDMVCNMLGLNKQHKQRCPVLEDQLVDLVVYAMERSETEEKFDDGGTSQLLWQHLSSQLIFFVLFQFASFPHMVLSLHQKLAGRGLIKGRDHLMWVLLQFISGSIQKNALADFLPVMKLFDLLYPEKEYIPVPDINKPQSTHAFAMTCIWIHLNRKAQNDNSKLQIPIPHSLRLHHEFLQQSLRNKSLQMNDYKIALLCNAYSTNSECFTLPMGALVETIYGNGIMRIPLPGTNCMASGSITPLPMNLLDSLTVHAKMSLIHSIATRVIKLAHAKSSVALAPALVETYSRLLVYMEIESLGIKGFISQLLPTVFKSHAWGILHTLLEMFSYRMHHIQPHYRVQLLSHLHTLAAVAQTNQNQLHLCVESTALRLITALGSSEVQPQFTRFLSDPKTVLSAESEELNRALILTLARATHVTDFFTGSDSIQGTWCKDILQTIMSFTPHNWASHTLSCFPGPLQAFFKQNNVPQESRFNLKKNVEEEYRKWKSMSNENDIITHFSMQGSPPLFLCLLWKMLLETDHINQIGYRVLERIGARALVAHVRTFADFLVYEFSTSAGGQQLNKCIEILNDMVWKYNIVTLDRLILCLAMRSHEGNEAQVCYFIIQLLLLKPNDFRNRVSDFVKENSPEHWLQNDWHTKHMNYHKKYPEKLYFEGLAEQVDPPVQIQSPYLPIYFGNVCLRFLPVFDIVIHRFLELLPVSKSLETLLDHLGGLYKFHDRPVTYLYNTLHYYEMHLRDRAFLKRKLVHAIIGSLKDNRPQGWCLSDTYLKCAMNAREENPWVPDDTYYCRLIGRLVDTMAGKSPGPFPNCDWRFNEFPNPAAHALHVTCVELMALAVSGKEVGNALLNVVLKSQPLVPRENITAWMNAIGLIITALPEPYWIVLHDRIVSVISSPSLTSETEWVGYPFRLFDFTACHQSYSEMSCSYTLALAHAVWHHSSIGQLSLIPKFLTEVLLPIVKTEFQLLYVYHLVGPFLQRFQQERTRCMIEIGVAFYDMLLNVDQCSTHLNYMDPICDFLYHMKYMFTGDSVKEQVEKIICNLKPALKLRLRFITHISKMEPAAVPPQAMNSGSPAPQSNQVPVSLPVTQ

T1 sequence (Q9ULK4 whole entry, the tested form may be a part, canonical isoform): as the sequence (Q9ULK4 whole entry, one chain of several) above

B1: nanobody Nb106 (VHH)
VHH: QVQLVESGGGLVQAGASLRLSCAVSGRTGSIYTMGWFRQAPGKEREVVARTTWTPGSTKYADSVKGRVAISRDIAKNTLYLQMNNLKPEDTAVYYCAACAYGTCYYGDRAYEYWGQGTQVTVSS
notes: A related nanobody (PDB 5IMK) was used to fit the density; it is not Nb106; also called lama nanobody; source: E. coli WK6, periplasmic extract, purified (Ni-NTA, Superdex 75)
**Q.** Does B1 bind [1]?
**A.** Result: binds

**Q.** Does B1 bind [2]?
**A.** Result: binds
